Molecular target: TglB (Pseudomonas syringae)
Test: fluorescence polarisation

## TglA D40A (peptide)
  IC50: 15 µM

## TglA E42A (peptide)
  IC50: 10.5 µM

## TglA E45A (peptide)
  IC50: > 300 µM

## TglA F49A (peptide)
  IC50: 4.2 µM

## TglA I41A (peptide)
  IC50: 32 µM

## TglA I44A (peptide)
  IC50: 24 µM

## TglA K47A (peptide)
  IC50: 255 µM

## TglA S46A (peptide)
  IC50: 11 µM

## TglA V43A (peptide)
  IC50: 98 µM

## TglA V48A (peptide)
  IC50: 113 µM

## WT TglA (peptide)
  IC50: 8 µM

Reference: PMC6927032
